Tests used:
[1] = system: PPC peptide, soluble recombinant 18-mer ADGACGYGRFSPPCGAAG
[2] = biological target: recombinant soluble human uPAR (suPAR) (UniProt Q03405)
Chain of recombinant soluble human uPAR (suPAR) (Q03405 whole entry, looked up, tested part not stated): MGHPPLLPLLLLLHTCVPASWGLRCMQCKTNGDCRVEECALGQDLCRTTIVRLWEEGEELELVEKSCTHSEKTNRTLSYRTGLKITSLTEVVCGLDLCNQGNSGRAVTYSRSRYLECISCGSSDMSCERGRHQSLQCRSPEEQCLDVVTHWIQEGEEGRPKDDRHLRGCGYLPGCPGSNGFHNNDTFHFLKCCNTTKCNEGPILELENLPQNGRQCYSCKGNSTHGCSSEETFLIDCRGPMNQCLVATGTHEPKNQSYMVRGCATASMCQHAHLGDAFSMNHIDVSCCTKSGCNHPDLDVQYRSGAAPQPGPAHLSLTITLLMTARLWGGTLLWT

Chain of trypsin-activated MMP-9 (chain, as listed by the source): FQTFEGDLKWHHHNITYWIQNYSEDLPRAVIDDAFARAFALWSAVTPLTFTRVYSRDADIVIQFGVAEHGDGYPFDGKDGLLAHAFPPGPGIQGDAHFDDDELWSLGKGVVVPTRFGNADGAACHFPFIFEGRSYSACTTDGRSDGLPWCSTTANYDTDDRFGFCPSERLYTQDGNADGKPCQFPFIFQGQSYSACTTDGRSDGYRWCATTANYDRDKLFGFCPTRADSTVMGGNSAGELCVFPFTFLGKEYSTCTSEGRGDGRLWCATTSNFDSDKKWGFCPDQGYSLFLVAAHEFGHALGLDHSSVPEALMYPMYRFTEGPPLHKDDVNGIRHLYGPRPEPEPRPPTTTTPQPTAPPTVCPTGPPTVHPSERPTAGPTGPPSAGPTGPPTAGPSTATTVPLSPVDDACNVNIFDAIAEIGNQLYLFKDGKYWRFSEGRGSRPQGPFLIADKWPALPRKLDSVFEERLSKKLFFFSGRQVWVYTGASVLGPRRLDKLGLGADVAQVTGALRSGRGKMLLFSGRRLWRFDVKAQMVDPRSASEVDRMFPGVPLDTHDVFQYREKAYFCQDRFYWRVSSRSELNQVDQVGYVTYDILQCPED

trypsin-activated MMP-9
gelatin degradation assay (enzymatic activity, biotinylated gelatin substrate) [1]: PPC inhibited both MMP-9 and MMP-2 activity | cleavage of soluble uPAR in vitro (western blot) [2]: MMP-9 cleaved the domain 1 (D1) from uPAR similarly as chymotrypsin does

Source: patent US20070207967
